Source: US20180339041A1 (Kyowa Kirin, published 2018)
Substitutions are numbered along the chain they refer to. Numbers in names are those of the source. Where “and” joins values, the source holds several entries; their conditions need not be identical. Equal values may be shown once. Each block holds one binder with its values, some of them ahead of it.

Experiments:
[1] = target: T1, C-terminally FLAG-tagged human Gas6 recombinant protein (hGas6-F) (human, UniProt Q14393 31-678, gamma-carboxylated glutamic acid residues in the Gla domain (producer cells co-express rat VKOR and human GGCX); positions not given); experiment: competitive ELISA, inhibition of hGas6-F binding to immobilised hAxl-hFc
T1 construct: also called human Gas6-F; human Gas6 protein
T1 sequence: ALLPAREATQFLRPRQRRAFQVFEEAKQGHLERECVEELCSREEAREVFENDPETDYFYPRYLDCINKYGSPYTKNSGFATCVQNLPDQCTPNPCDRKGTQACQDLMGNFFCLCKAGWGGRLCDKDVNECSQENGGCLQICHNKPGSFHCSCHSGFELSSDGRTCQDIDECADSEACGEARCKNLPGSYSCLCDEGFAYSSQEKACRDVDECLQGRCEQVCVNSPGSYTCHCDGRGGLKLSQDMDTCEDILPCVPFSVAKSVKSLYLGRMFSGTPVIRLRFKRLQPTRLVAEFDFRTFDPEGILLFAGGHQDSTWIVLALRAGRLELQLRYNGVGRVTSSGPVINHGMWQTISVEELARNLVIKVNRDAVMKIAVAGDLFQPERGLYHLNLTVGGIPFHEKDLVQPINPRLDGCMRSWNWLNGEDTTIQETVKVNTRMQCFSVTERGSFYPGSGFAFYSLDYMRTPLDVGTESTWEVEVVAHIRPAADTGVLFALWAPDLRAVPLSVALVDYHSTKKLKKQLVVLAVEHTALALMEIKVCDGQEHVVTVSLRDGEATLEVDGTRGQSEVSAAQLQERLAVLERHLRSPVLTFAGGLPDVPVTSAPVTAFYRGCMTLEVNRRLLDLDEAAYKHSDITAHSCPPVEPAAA

[2] = target: T1, C-terminally FLAG-tagged human Gas6 …; experiment: SPR Biacore T100, captured antibody, Gas6 analyte, first test
Description: (§1) An anti-human IgG antibody was immobilized on a CM5 sensor chip (manufactured by GE Healthcare Japan Corp.) using Human Antibody Capture Kit (manufactured by GE Healthcare Japan Corp.) according to the attached manual. Each test antibody adjusted to 1 μg/mL was added for 10 seconds at a flow rate of 10 μL/min to flow cells. […] The measurement was performed by the […] method. The obtained sensorgram was analyzed using Bia Evaluation Software (manufactured by GE Healthcare Japan Corp.), and the kinetic constant of each antibody was calculated.

[3] = target: T1, C-terminally FLAG-tagged human Gas6 …; experiment: ELISA, hGas6-F captured by anti-FLAG, anti-human IgG-HRP
Description: First, 2 μg/mL anti-FLAG antibody [Monoclonal ANTI-FLAG M2 antibody produced in mouse (manufactured by Sigma-Aldrich Co. LLC) diluted with PBS (manufactured by Nacalai Tesque, Inc.)] was dispensed at 50 μL/well to a 96-well plate for ELISA (manufactured by Nalge Nunc International), and the plate was left standing overnight at 4° C. for adsorption. After removal of the immobilization solution, 1% BSA-PBS (manufactured by Nacalai Tesque, Inc.) was added thereto at 300 μL/well, and the plate was left standing at room temperature for 1 hour for blocking and washed five times with Tween 20-PBS (manufactured by Wako Pure Chemical Industries Ltd.).
In order to reduce the backgrounds of measurement values, the diluted secondary antibody solution was mixed with 50 μg/mL of an anti-DNP mouse IgG1 antibody and incubated at room temperature for 1 hour for use.

[4] = target: T1, C-terminally FLAG-tagged human Gas6 …; experiment: SPR Biacore T100, captured antibody, Gas6 analyte, retest
Description: as §1
In this retest, unlike the test mentioned above, the number of antibodies to be measured and variations in the concentration of the analyte were decreased, and the assay was conducted for a short time (within several hours), instead of sufficiently leaving standing the analyte added to the vial. […] This minimizes the adsorption of the analyte to the vial and permits more accurate calculation of ka and KD values than that in the test mentioned above.

[5] = target: T1, C-terminally FLAG-tagged human Gas6 …; experiment: SPR Biacore T100, captured antibody, Gas6 analyte, first test; remark: listed apart in the source
Description: The measurement instrument used was Biacore® T100 (manufactured by GE Healthcare Japan Corp.).
as §1

- IC50 [1]: 0.0123 µg/mL
- Kd [2]: < 1.16 nM
- koff [2]: 0.000141 s⁻¹ and 0.000137 s⁻¹
- kon [2]: > 121000 M⁻¹ s⁻¹
- EC50 [3]: 0.00678 µg/mL
- Kd [4]: 0.202 nM
- koff [4]: 7.66e-05 s⁻¹
- kon [4]: 380000 M⁻¹ s⁻¹
B1: KM5321 chimeric antibody (antibody, V domains shown)
VH: QIQLVQSGPELKKPGETVKISCRASGYTFTNYGMNWVKQAPGKGLKWMGWINTNTGEPTYTEEFKGRFAFSLETSATTAYLQINDLKNEDTATYFCARDEGWFVYWGQGTLITVSA
VL: ETTVTQSPASLSVATGEKVTIRCITSTDIDDDMNWYQQKPGEPPKLLISEGNTLRPGVPSRFSSSGYGTDFVFTIENTLSEDVADYYCLQTDSVPLTFGAGTKLELK
notes: also called KM5321 chimera; B-01

- Kd [2]: < 1.19 nM
- koff [2]: 0.000159 s⁻¹ and 0.000238 s⁻¹
- kon [2]: > 134000 M⁻¹ s⁻¹
B2: hzKM5321 LV6HV0 antibody (antibody, V domains shown)
VH: QVHLVQSGSELKKPGASVKISCKASGYTFTNYGMNWVRQAPGQGLEWMGWINTNTGEPTYTEEFKGRFVFSLDTSVTTSYLQISTLKAEDTAVYFCARDEGWFVYWGQGTLVTVSS
VL: ETTLTQSPSSLSVSTGDRVTITCITSTDIDDDMNWYQQKPGKPPKLLISEGNTLRPGVPSRFSSSGSGTDFTLTISSTQPEDFADYYCLQTDSVPLTFGQGTKVEIK
notes: Humanized; variant human IgG4 constant region (EU S228P, L235E, R409K), human kappa; also called B-08; LV6HV0

- Kd [2]: < 2.61 nM
- koff [2]: 0.000277 s⁻¹
- kon [2]: > 106000 M⁻¹ s⁻¹
B3: hzKM5321 LV6HV5 antibody (antibody, V domains shown)
VH: B2 VH with V2I, R38K, E46K, S79A, V112I
VL: B2 VL
notes: Humanized; variant human IgG4 constant region (EU S228P, L235E, R409K), human kappa; also called B-29; LV6HV5

- Kd [2]: < 3.33 nM
- koff [2]: 0.000352 s⁻¹
- kon [2]: > 106000 M⁻¹ s⁻¹
B4: hzKM5321 LV9HV7 antibody (antibody, V domains shown)
VH: B2 VH with V2I, S9P, R38K, E46K, S79A, V93T, V112I
VL: B2 VL with L4V, L73F, V104L
notes: Humanized; variant human IgG4 constant region (EU S228P, L235E, R409K), human kappa; also called B-21; LV9HV7

- Kd [2]: < 3.07 nM
- koff [2]: 0.000329 s⁻¹
- kon [2]: > 107000 M⁻¹ s⁻¹
B5: hzKM5321 LV7bHV7 antibody (antibody, V domains shown)
VH: B2 VH with V2I, S9P, R38K, E46K, S79A, V93T, V112I
VL: B2 VL with L4V, T15V, P43A, L73F, V104L
notes: Humanized; variant human IgG4 constant region (EU S228P, L235E, R409K), human kappa; also called B-20; LV7bHV7

- Kd [2]: < 1.88 nM
- koff [2]: 0.0002 s⁻¹
- kon [2]: > 106000 M⁻¹ s⁻¹
B6: hzKM5321 LV6HV3b antibody (antibody, V domains shown)
VH: B2 VH with R38K, E46K, V93T
VL: B2 VL
notes: Humanized; variant human IgG4 constant region (EU S228P, L235E, R409K), human kappa; also called B-26; LV6HV3b

- Kd [2]: < 1.92 nM
- koff [2]: 0.000204 s⁻¹
- kon [2]: > 106000 M⁻¹ s⁻¹
B7: hzKM5321 LV6HV4b antibody (antibody, V domains shown)
VH: B2 VH with S9P, R38K, E46K, V93T
VL: B2 VL
notes: Humanized; variant human IgG4 constant region (EU S228P, L235E, R409K), human kappa; also called B-28; LV6HV4b

- Kd [2]: < 2.07 nM
- koff [2]: 0.000212 s⁻¹
- kon [2]: > 102000 M⁻¹ s⁻¹
B8: hzKM5321 LV6HV2a antibody (antibody, V domains shown)
VH: B2 VH with R38K, E46K
VL: B2 VL
notes: Humanized; variant human IgG4 constant region (EU S228P, L235E, R409K), human kappa; also called B-23; LV6HV2a

- Kd [2]: < 1.96 nM
- koff [2]: 0.000247 s⁻¹
- kon [2]: > 126000 M⁻¹ s⁻¹
B9: hzKM5321 LV9HV0 antibody (antibody, V domains shown)
VH: B2 VH
VL: B2 VL with L4V, L73F, V104L
notes: Humanized; variant human IgG4 constant region (EU S228P, L235E, R409K), human kappa; also called B-11; LV9HV0

- Kd [2]: < 1.41 nM
- koff [2]: 0.000188 s⁻¹
- kon [2]: > 133000 M⁻¹ s⁻¹
B10: hzKM5321 LV7aHV0 antibody (antibody, V domains shown)
VH: B2 VH
VL: B2 VL with L73F
notes: Humanized; variant human IgG4 constant region (EU S228P, L235E, R409K), human kappa; also called B-09; LV7aHV0

- Kd [2]: < 2.15 nM
- koff [2]: 0.000226 s⁻¹
- kon [2]: > 105000 M⁻¹ s⁻¹
B11: hzKM5321 LV6HV3a antibody (antibody, V domains shown)
VH: B2 VH with S9P, E46K, V93T
VL: B2 VL
notes: Humanized; variant human IgG4 constant region (EU S228P, L235E, R409K), human kappa; also called B-25; LV6HV3a

- Kd [2]: < 3.2 nM
- koff [2]: 0.000341 s⁻¹
- kon [2]: > 106000 M⁻¹ s⁻¹
B12: hzKM5321 LV6HV4a antibody (antibody, V domains shown)
VH: B2 VH with V2I, S9P, S79A, V112I
VL: B2 VL
notes: Humanized; variant human IgG4 constant region (EU S228P, L235E, R409K), human kappa; also called B-27; LV6HV4a

- Kd [2]: < 2.59 nM
- koff [2]: 0.000281 s⁻¹ and 0.000278 s⁻¹
- kon [2]: > 107000 M⁻¹ s⁻¹
B13: hzKM5321 LV6HV7 antibody (antibody, V domains shown)
VH: B2 VH with V2I, S9P, R38K, E46K, S79A, V93T, V112I
VL: B2 VL
notes: Humanized; variant human IgG4 constant region (EU S228P, L235E, R409K), human kappa; also called B-18; LV6HV7

- Kd [2]: < 2.91 nM
- koff [2]: 0.000299 s⁻¹
- kon [2]: > 103000 M⁻¹ s⁻¹
B14: hzKM5321 LV7aHV7 antibody (antibody, V domains shown)
VH: B2 VH with V2I, S9P, R38K, E46K, S79A, V93T, V112I
VL: B2 VL with L73F
notes: Humanized; variant human IgG4 constant region (EU S228P, L235E, R409K), human kappa; also called B-19; LV7aHV7

- IC50 [1]: 0.0126 µg/mL
- Kd [2]: < 2.33 nM
- koff [2]: 0.000239 s⁻¹
- kon [2]: > 103000 M⁻¹ s⁻¹
- EC50 [3]: 0.00595 µg/mL
- Kd [4]: 0.484 nM
- koff [4]: 0.000154 s⁻¹
- kon [4]: 319000 M⁻¹ s⁻¹
B15: hzKM5321 LV6HV2b antibody (antibody, V domains shown)
VH: B2 VH with S9P, V93T
VL: B2 VL
notes: Humanized; variant human IgG4 constant region (EU S228P, L235E, R409K), human kappa; also called B-24; LV6HV2b

- IC50 [1]: 0.0118 µg/mL
- Kd [2]: < 1.88 nM
- koff [2]: 0.000242 s⁻¹
- kon [2]: > 129000 M⁻¹ s⁻¹
- EC50 [3]: 0.00669 µg/mL
- Kd [4]: 0.403 nM
- koff [4]: 0.000142 s⁻¹
- kon [4]: 353000 M⁻¹ s⁻¹
B16: hzKM5321 LV7bHV0 antibody (antibody, V domains shown)
VH: B2 VH
VL: B2 VL with L4V, T15V, P43A, L73F, V104L
notes: Humanized; variant human IgG4 constant region (EU S228P, L235E, R409K), human kappa; also called B-10; LV7bHV0

- fold increase of KD against the KM5320 chimeric antibody [5]: ≥ 10 fold
- fold increase of kd against the KM5320 chimeric antibody [5]: ~6 fold
- Kd [2]: < 13.8 nM
- koff [2]: 0.000924 s⁻¹
- kon [2]: > 66800 M⁻¹ s⁻¹
B17: hzKM5320 LV0HV0 antibody (antibody, V domains shown)
VH: QVQLVQSGSELKKPGASVKVSCKASGYTFTNYGMNWVRQAPGQGLEWMGWINTETGEPTYSDDFKGRFVFSLDTSVSTAYLQISSLKAEDTAVYYCAREDGYYGTLDYWGQGTTVTVSS
VL: DVVMTQSPDSLAVSLGERVTINCKASQSVSNDVAWYQQKPGQSPKLLIYYASNRYTGVPDRFSGSGSGTDFTLTISSLQAEDVAVYYCQQDYSSPWTFGQGTKLEIK
notes: Humanized; variant human IgG4 constant region (EU S228P, L235E, R409K), human kappa; also called A-02

- IC50 [1]: 0.742 µg/mL
- Kd [2]: < 16 nM
- koff [2]: 0.00115 s⁻¹
- kon [2]: > 72000 M⁻¹ s⁻¹
- EC50 [3]: 0.0191 µg/mL
- Kd [4]: 16.5 nM
- koff [4]: 0.00149 s⁻¹
- kon [4]: 90000 M⁻¹ s⁻¹
B18: hzKM5320 LV1bHV0 antibody (antibody, V domains shown)
VH: B17 VH
VL: B17 VL with L78V
notes: Humanized; variant human IgG4 constant region (EU S228P, L235E, R409K), human kappa; also called A-04

- IC50 [1]: 0.0336 µg/mL
- Kd [2]: < 2.13 nM
- koff [2]: 0.000158 s⁻¹
- kon [2]: > 74300 M⁻¹ s⁻¹
- EC50 [3]: 0.0122 µg/mL
- Kd [4]: 1.29 nM
- koff [4]: 0.000197 s⁻¹
- kon [4]: 152000 M⁻¹ s⁻¹
B19: hzKM5320 LV5HV2 antibody (antibody, V domains shown)
VH: B17 VH with V93T, Y95F
VL: B17 VL with V2I, L46V, L73F, L78V, Y87F
notes: Humanized; variant human IgG4 constant region (EU S228P, L235E, R409K), human kappa; also called kzKM5320 LV5HV2; A-20
